Measured values taken from the supplement of paper PMC11246515.
± gives the standard deviation of the averaged measurements.

Test: total protein half-life in vivo (active degradation + dilution); higher = more stable protein
[1] = E. coli NCM3722 delta-clpP delta-lon delta-hslV, growth: N-lim chemostat, doubling time 6 h
[2] = E. coli NCM3722 delta-clpP, growth: N-lim chemostat, doubling time 6 h
[3] = E. coli NCM3722 delta-hslV, growth: N-lim chemostat, doubling time 6 h
[4] = E. coli NCM3722 delta-lon, growth: N-lim chemostat, doubling time 6 h
[5] = E. coli NCM3722 delta-smpB, growth: N-lim chemostat, doubling time 6 h
[6] = wild type E. coli NCM3722, growth: C-lim chemostat, doubling time 3 h
[7] = wild type E. coli NCM3722, growth: C-lim chemostat, doubling time 6 h
[8] = wild type E. coli NCM3722, growth: C-lim chemostat, doubling time 12 h
[9] = wild type E. coli NCM3722, growth: N-lim chemostat, doubling time 6 h
[10] = wild type E. coli NCM3722, growth: N-lim chemostat, doubling time 12 h
[11] = wild type E. coli NCM3722, growth: P-lim chemostat, doubling time 6 h
[12] = wild type E. coli NCM3722, growth: P-lim chemostat, doubling time 12 h

| Sequence | total protein half-life in vivo [1] [h] | total protein half-life in vivo [2] [h] | total protein half-life in vivo [3] [h] | total protein half-life in vivo [4] [h] | total protein half-life in vivo [5] [h] | total protein half-life in vivo [6] [h] | total protein half-life in vivo [7] [h] | total protein half-life in vivo [8] [h] | total protein half-life in vivo [9] [h] | total protein half-life in vivo [10] [h] | total protein half-life in vivo [11] [h] | total protein half-life in vivo [12] [h] |
| --- | --- | --- | --- | --- | --- | --- | --- | --- | --- | --- | --- | --- |
| MRVLVTGGSGYIGSHTCVQLLQNGHDVIILDNLCNSKRSVLPVIERLGGKHPTFVEGDIRNEALMTEILHDHAIDTVIHFAGLKAVGESVQKPLEYYDNNVNGTLRLISAMRAANVKNFIFSSSATVYGDQPKIPYVESFPTGTPQSPYGKSKLMVEQILTDLQKAQPDWSIALLRYFNPVGAHPSGDMGEDPQGIPNNLMPYIAQVAVGRRDSLAIFGNDYPTEDGTGVRDYIHVMDLADGHVVAMEKLANKPGVHIYNLGAGVGNSVLDVVNAFSKACGKPVNYHFAPRREGDLPAYWADASKADRELNWRVTRTLDEMAQDTWHWQSRHPQGYPD | 6.39 ± 1.9 | 4.762 ± 0.027 | 4.54 ± 0.37 | 5 ± 0.24 | 5.61 ± 1.2 | 3.11 ± 0.27 | 5.62 ± 0.26 | 11.6 ± 0.67 | 4.53 ± 0.95 | 13.7 ± 1.8 | 5.91 ± 0.51 | 11.7 ± 0.53 |
| MRNFDLSPLYRSAIGFDRLFNHLENNQSQSNGGYPPYNVELVDENHYRIAIAVAGFAESELEITAQDNLLVVKGAHADEQKERTYLYQGIAERNFERKFQLAENIHVRGANLVNGLLYIDLERVIPEAKKPRRIEIN [P0C054] |  | 3.11 ± 0.15 | 1.47 ± 0.1 | 2.83 ± 0.24 | 1.35 ± 0.082 | 1.2 ± 0.21 | 1.83 ± 0.025 | 1.87 ± 0.3 | 1.65 ± 0.42 | 2.7 ± 0.45 | 1.58 ± 0.077 | 3.08 ± 0.14 |
| MPTQEAKAHHVGEWASLRNTSPEIAEAIFEVAGYDEKMAEKIWEEGSDEVLVKAFAKTDKDSLFWGEQTIERKNV [P0AB14] | 5.53 ± 0.41 |  | 2.63 | 3.45 ± 0.75 | 2.46 ± 0.13 | 2.55 ± 0.13 | 4.15 ± 0.58 | 5.68 ± 1 | 2.39 ± 0.054 | 3.85 ± 1.1 | 3.02 ± 0.39 | 5.43 ± 0.18 |
| MLKARNCGWIRLLPLFMLSLPVQAELRCVANAVDIESFFSAATAEDKQQVEQAINSSVNLVPFGLSASNWKVHRGDLVVEGNIESNQKLIVLGNLTVKGNISTFSLSNPWVILGNVTATNIVADSPLLITGSINASGLVFIDSYYDNPSTIKGSINARGIFINDIIAPVVASSTNSEFMVRASDKHDTENVKKALMIINPDAYYWGLINDEDALKEIFKRSNIRMAGNVCNQMKKEALFRPKPSPELVQELQMLDEGKVAAFEGRDIATFDLAVMRTLPRLKGISANLRKQLINSNDEQTIESMARYMPDNEILELTDQQLGYQPVVLGLLDREPLSVEIMTRMSRLPDGVGPLNLALRENLPLDIVMTLAKRDWDMIIQELYKDAWLLPESIIDGYIRSDDSSIRQVGAGGQLTYNQAMQLANDSSNNVVTSLAFKLAEMKHHGQLLRMTPQESDKVAGYLYQKFENDDDLIRVLFLALPDNLQFNFVKRMEKKSPAYFCCRDMQVIHSDAALQRLLTRFNDPEGWSNLAKNQYLSTSMKQKIWQRALSHRKNNPKADSDAYETSADMILSELISHGEVDDQMLLNATALIRSDDWDFLESALISWDNLPAVVLKELQQNTPRNDIWAKFFLRQENSSRAQVDEALRVYYALDPDALAQLDVLAKQPDRIWWSTLAKSNLTFFKFGALNNRHTPPAVLAAEIDPEWWIVAMNNPRFPVDVLKARLKRDPLLALELVNPELDLVRQLALNGKTRAIREQAMRKLDELY | > 8 |  |  |  |  |  |  |  |  |  |  |  |
| MMLSEETSAVRPQKQTRFNGAKLVWMLKGSPLTVTSAVIIVLMLLMMIFSPWLATHDPNAIDLTARLLPPSAAHWFGTDEVGRDLFSRVLVGSQQSILAGLVVVAIAGMIGSLLGCLSGVLGGRADAIIMRIMDIMLSIPSLVLTMALAAALGPSLFNAMLAIAIVRIPFYVRLARGQALVVRQYTYVQAAKTFGASRWHLINWHILRNSLPPLIVQASLDIGSAILMAATLGFIGLGAQQPSAEWGAMVANGRNYVLDQWWYCAFPGAAILLTAVGFNLFGDGIRDLLDPKAGGKQS |  |  |  |  | 4.22 ± 0.1 |  |  |  | 4.15 | 6.94 |  |  |
| MRNPTLLQCFHWYYPEGGKLWPELAERADGFNDIGINMVWLPPAYKGASGGYSVGYDSYDLFDLGEFDQKGSIPTKYGDKAQLLAAIDALKRNDIAVLLDVVVNHKMGADEKEAIRVQRVNADDRTQIDEEIIECEGWTRYTFPARAGQYSQFIWDFKCFSGIDHIENPDEDGIFKIVNDYTGEGWNDQVDDELGNFDYLMGENIDFRNHAVTEEIKYWARWVMEQTQCDGFRLDAVKHIPAWFYKEWIEHVQEVAPKPLFIVAEYWSHEVDKLQTYIDQVEGKTMLFDAPLQMKFHEASRMGRDYDMTQIFTGTLVEADPFHAVTLVANHDTQPLQALEAPVEPWFKPLAYALILLRENGVPSVFYPDLYGAHYEDVGGDGQTYPIDMPIIEQLDELILARQRFAHGVQTLFFDHPNCIAFSRSGTDEFPGCVVVMSNGDDGEKTIHLGENYGNKTWRDFLGNRQERVVTDENGEATFFCNGGSVSVWVIEEVI | 5.23 ± 0.094 | 4.16 ± 0.08 | 4.036 ± 0.019 | 4.4 ± 0.36 | 4.26 ± 0.12 | 3.21 ± 0.87 | 6.29 ± 0.87 | 12.4 ± 0.27 | 4.2 ± 0.082 | 6.75 ± 0.24 | 5.54 ± 0.59 | 13.4 ± 0.48 |
| MLYGFSGVILQGALVTLELAISSVVLAVIIGLIGAGGKLSQNRLSGLIFEGYTTLIRGVPDLVLMLLIFYGLQIALNTVTEAMGVGQIDIDPMVAGIITLGFIYGAYFTETFRGAFMAVPKGHIEAATAFGFTRGQVFRRIMFPSMMRYALPGIGNNWQVILKSTALVSLLGLEDVVKATQLAGKSTWEPFYFAIVCGVIYLVFTTVSNGVLLFLERRYSVGVKRADL | 5.69 ± 0.1 | 6.04 ± 0.29 |  | 6.66 ± 0.46 | 5.85 ± 0.34 | 3.09 ± 0.16 | 5.6235 ± 0.0025 | 11.5 ± 2.1 | 6.17 ± 0.47 | 12.8 ± 2.3 | 5.65 ± 0.36 | 11.2 ± 2.3 |
| MSLISMHGAWLSFSDAPLLDNAELHIEDNERVCLVGRNGAGKSTLMKILNREQGLDDGRIIYEQDLIVARLQQDPPRNVEGSVYDFVAEGIEEQAEYLKRYHDISRLVMNDPSEKNLNELAKVQEQLDHHNLWQLENRINEVLAQLGLDPNVALSSLSGGWLRKAALGRALVSNPRVLLLDEPTNHLDIETIDWLEGFLKTFNGTIIFISHDRSFIRNMATRIVDLDRGKLVTYPGNYDQYLLEKEEALRVEELQNAEFDRKLAQEEVWIRQGIKARRTRNEGRVRALKAMRRERGERREVMGTAKMQVEEASRSGKIVFEMEDVCYQVNGKQLVKDFSAQVLRGDKIALIGPNGCGKTTLLKLMLGQLQADSGRIHVGTKLEVAYFDQHRAELDPDKTVMDNLAEGKQEVMVNGKPRHVLGYLQDFLFHPKRAMTPVRALSGGERNRLLLARLFLKPSNLLILDEPTNDLDVETLELLEELIDSYQGTVLLVSHDRQFVDNTVTECWIFEGGGKIGRYVGGYHDARGQQEQYVALKQPAVKKTEEAAAAKAETVKRSSSKLSYKLQRELEQLPQLLEDLEAKLEALQTQVADASFFSQPHEQTQKVLADMAAAEQELEQAFERWEYLEALKNGG | 4.79 ± 0.63 | 5.1 ± 0.79 | 4.73 ± 0.16 | 4.8 ± 0.17 | 4.38 ± 0.62 | 3.41 ± 0.18 | 5.82 ± 0.35 | 10.4 ± 1.5 | 4.37 ± 0.087 | 7.15 ± 0.13 | 5.42 ± 0.33 | 9.51 ± 0.35 |
| MTTLSCKVTSVEAITDTVYRVRIVPDAAFSFRAGQYLMVVMDERDKRPFSMASTPDEKGFIELHIGASEINLYAKAVMDRILKDHQIVVDIPHGEAWLRDDEERPMILIAGGTGFSYARSILLTALARNPNRDITIYWGGREEQHLYDLCELEALSLKHPGLQVVPVVEQPEAGWRGRTGTVLTAVLQDHGTLAEHDIYIAGRFEMAKIARDLFCSERNAREDRLFGDAFAFI [P0AEN1] | 5.7 ± 0.93 | 4.72 ± 0.087 | 4.19 ± 0.12 | 4.62 ± 0.48 | 4.21 ± 0.8 | 2.74 ± 0.19 | 5.78 ± 0.43 | 8.71 ± 1.9 | 4.2 ± 0.26 | 7.18 ± 0.22 | 4.62 ± 1 | 9.49 ± 0.3 |
| MADTHHAQGPGKSVLGIGQRIVSIMVEMVETRLRLAVVELEEEKANLFQLLLMLGLTMLFAAFGLMSLMVLIIWAVDPQYRLNAMIATTVVLLLLALIGGIWTLRKSRKSTLLRHTRHELANDRQLLEEESREQ | 6.43 ± 0.14 | 6.06 ± 0.94 | 7.19 ± 0.63 | 5.35 ± 1.2 | 6.49 ± 0.34 | 2.99 ± 0.26 | 5.36 ± 0.18 | 11 ± 0.91 | 6.27 ± 0.46 | 11.7 ± 3.4 | 4.39 ± 0.56 |  |
| MLTIQFLCPLPNGLHARPAWELKEQCSQWQSEITFINHRQNAKADAKSSLALIGTGTLFNDSCSLNISGSDEEQARRVLEEYIQVRFIDSDSVQPTQAELTAHPLPRSLSRLNPDLLYGNVLASGVGVGTLTLLQSDSLDSYRAIPASAQDSTRLEHSLATLAEQLNQQLRERDGESKTILSAHLSLIQDDEFAGNIRRLMTEQHQGLGAAIISNMEQVCAKLSASASDYLRERVSDIRDISEQLLHITWPELKPRNKLVLEKPTILVAEDLTPSQFLSLDLKNLAGMILEKTGRTSHTLILARASAIPVLSGLPLDAIARYAGQPAVLDAQCGVLAINPNDAVSGYYQVAQTLADKRQKQQAQAAAQLAYSRDNKRIDIAANIGTALEAPGAFANGAEGVGLFRTEMLYMDRDSAPDEQEQFEAYQQVLLAAGDKPIIFRTMDIGGDKSIPYLNIPQEENPFLGYRAVRIYPEFAGLFRTQLRAILRAASFGNAQLMIPMVHSLDQILWVKGEIQKAIVELKRDGLRHAETITLGIMVEVPSVCYIIDHFCDEVDFFSIGSNDMTQYLYAVDRNNPRVSPLYNPITPSFLRMLQQIVTTAHQRGKWVGICGELGGESRYLPLLLGLGLDELSMSSPRIPAVKSQLRQLDSEACRELARQACECRSAQEIEALLTAFTPEEDVRPLLALENIFVDQDFSNKEQAIQFLCGNLGVNGRTEHPFELEEDVWQREEIVTTGVGFGVAIPHTKSQWIRHSSISIARLAKPIGWQSEMGEVELVIMLTLGANEGMNHVKVFSQLARKLVNKNFRQSLFAAQDAQSILTLLETELTF | 6.54 |  |  |  | 2.21 | 2.36 |  |  |  |  | 3.21 |  |
| MSFTRRKFVLGMGTVIFFTGSASSLLANTRQEKEVRYAMIHDESRCNGCNICARACRKTNHVPAQGSRLSIAHIPVTDNDNETQYHFFRQSCQHCEDAPCIDVCPTGASWRDEQGIVRVEKSQCIGCSYCIGACPYQVRYLNPVTKVADKCDFCAESRLAKGFPPICVSACPEHALIFGREDSPEIQAWLQQNKYYQYQLPGAGKPHLYRRFGQHLIKKENV | 4.71 ± 0.073 |  |  |  |  |  |  |  |  |  |  | 15.8 |
